According to publication PMC5035961:

Columns and labels:
[1] = molecular target: Influenza A nucleoprotein (strain A/WSN/1933, H1N1) (influenza A virus, H1N1 strain A/WSN/1933) (UniProt P15682); experiment: SEC-MALLS
[2] = molecular target: Influenza A nucleoprotein (strain A/WSN/1933, H1N1) (influenza A virus, H1N1 strain A/WSN/1933) (UniProt P15682); experiment: negative stain electron microscopy

“Influenza A nucleoprotein (strain A/WSN/1933, H1N1) (from UniProt P15682 1-498) (natural protein)” was tested, and the stoichiometry N [1] was 3 and the stoichiometry N [2] was 3.
